Measurements published in publication PMC8631008 (FEBS letters, 2021).

Molecular target: T1, Pleiotrophin, wild type (mature, residues 1 to 136) (human, UniProt P21246 33-168)
T1 sequence (looked up): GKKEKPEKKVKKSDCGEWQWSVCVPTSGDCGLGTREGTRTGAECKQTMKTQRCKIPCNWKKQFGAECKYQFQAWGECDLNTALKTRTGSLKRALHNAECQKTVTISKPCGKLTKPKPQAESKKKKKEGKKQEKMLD
Assay: NMR titration

Kd: ~30 µM
Binder: GGGEDGDTDDDGDDDDDDRGSDGLSIHK [PTPRZ peptide (residues G1414 to K1441 of receptor type protein tyrosine phosphatase ζ)]
